Results from paper PMC6765112, “Specificity of MYB interactions relies on motifs in ordered and disordered contexts” (Nucleic Acids Research, 2019).
Read-outs that look alike come from different tables or passages of the source. Ends that are not written are not given here. * marks the point of attachment. Biotin = O=C1N[C@H]2[C@H](CS[C@H]2CCCCC(=O)*)N1

B1: MYC4 N-terminal domain (L55-N253) (domain or fragment, Arabidopsis thaliana, UniProt O49687 55-253, looked up)
chain: LPQVNEDNLQQRLQALIEGANENWTYAVFWQSSHGFAGEDNNNNNTVLLGWGDGYYKGEEEKSRKKKSNPASAAEQEHRKRVIRELNSLISGGVGGGDEAGDEEVTDTEWFFLVSMTQSFVKGTGLPGQAFSNSDTIWLSGSNALAGSSCERARQGQIYGLQTMVCVATENGVVELGSSEIIHQSSDLVDKVDTFFNFN
notes: MYC4, Arabidopsis thaliana, N-terminal domain with the JID, residues L55-N253 (AA55-253); recombinant protein of 22.7 kDa; expressed from pET52u; source: E. coli BL21(DE3), purified (HisTrap HP IMAC, dialysed to PBS pH 7.4 with 1 mM DTT); not shown: 6xHis, C-terminal, kept

Tests used:
[1] = biological target: T1, L190V-MIM peptide (F180-G201 of MYB29, L190V) (Arabidopsis thaliana, UniProt Q9FLR1 180-201, L190V, biotin on the N-terminus); assay: BLI; biotinylated peptide (1 μM) immobilised on streptavidin biosensors; MYC4Nt 130 to 0.1 μM; PBS pH 7.4, 1 mM DTT, 0.05% bovine serum albumin; BLItz; equilibrium responses fitted to a Hill equation; settings: both partners purified
T1 construct: MYB29, Arabidopsis thaliana, 22 residues F180-G201; source: synthetic peptide (TAG Copenhagen A/S)
T1 peptide (looked up): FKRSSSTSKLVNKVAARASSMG

[2] = biological target: B1; assay: as above; settings: both partners purified
[3] = biological target: T2, MYC4 N-terminal domain (L55-N253) (Arabidopsis thaliana, UniProt O49687 55-253); assay: BLI
T2 chain: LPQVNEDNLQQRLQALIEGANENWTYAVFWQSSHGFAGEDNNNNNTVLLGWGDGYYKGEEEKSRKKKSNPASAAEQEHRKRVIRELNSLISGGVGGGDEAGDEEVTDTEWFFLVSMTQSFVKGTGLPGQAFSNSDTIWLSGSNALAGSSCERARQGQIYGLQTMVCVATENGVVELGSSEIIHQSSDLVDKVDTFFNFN

[4] = tested on: GL3; assay: Split-ubiquitin assay, GL3 as bait; type: cell-based, Arabidopsis thaliana; settings: yeast, SD-AHLW growth
Procedure: The rapamycin-compatible yeast strain NMY51 TOR1-1 Δfpr1 ([35]) was transformed according to DUALhunter™ kit instructions (Dualsystems biotech). Briefly, overnight 2×YPAD cultures were diluted to OD600 = 0.2, and incubated at 30°C, 150 RPM for 4–6 h in 2×YPAD, before harvesting the cells by centrifugation at 700 g for 5 min. The cells were washed with H2O, then 0.1 M LiOAc, before resuspending in 0.1 M LiOAc with 15% glycerol. The competent cells were then aliquoted and stored at −80°C until transformation. For double transformation with bait and prey plasmids, competent cells were thawed on ice, and mixed with transformation mix (240 μl 50% PEG-3350, 35 μl 1 M LiOAc and 25 μl 2 mg/ml ssDNA per transformation) and 200 ng of each plasmid, before being exposed to a 42°C heat shock in a water bath for 45 min. The cells were then chilled on ice for a few minutes, sedimented by centrifugation (3000 g, 1 min), resuspended in sterile H2O, plated on SD-LW plates and grown at 30°C for 2–3 days.
For drop tests, cells from three individual colonies of each bait/prey combination were grown overnight in liquid SD-LW media. Next day, culture densities were normalized to OD600 = 0.05, dilution series (OD600 = 0.05, OD600 = 0.005, OD600 = 0.0005 and OD600 = 0.00005) were spotted on square plates (SD-LW, SD-AHLW and SD-AHLW+Rapa) and grown for 2 days at 30°C before taking pictures.
To identify interaction sites mediating specific MYB–MYC complex formation, we selected two TFs from each family. These were MYB28 and MYB29 from MYB subgroup 12, and two of their partner bHLH TFs, MYC3 and MYC4. To define the region mediating the interactions we applied a chemically inducible dimerization split-ubiquitin system ([35]). […] This is used as an in-built positive control for correct expression and functionality of the prey fusion protein and thereby reduces the incidence of false negatives.

[5] = tested on: GL3; settings: ref [32]; cited from earlier work
Source text: To identify interaction sites mediating specific MYB–MYC complex formation, we selected two TFs from each family. These were MYB28 and MYB29 from MYB subgroup 12, and two of their partner bHLH TFs, MYC3 and MYC4. To define the region mediating the interactions we applied a chemically inducible dimerization split-ubiquitin system ([35]). […] As controls, we included the interaction between GL3 and MYB75, where a fragment c ...

Molecule: B1
- fold weaker affinity than the WT-MIM peptide [1]: ~10 fold

B2: WT-MIM peptide (F180-G201 of MYB29) (peptide, UniProt Q9FLR1 180-201, looked up)
peptide: Biotin-FKRSSSTSKLLNKVAARASSMG
notes: source: synthetic peptide (TAG Copenhagen A/S)
- Kd [2]: 2700 ± 800 nM
- Kd [3]: 1900 nM

B3: non-MYB region of MYB75: non-MYB region of MYB75 (residues K110-D248) (protein)
chain: KKHEPCCKIKMKKRDITPIPTTPALKNNVYKPRPRSFTVNNDCNHLNAPPKVDVNPPCLGLNINNVCDNSIIYNKDKKKDQLVNNLIDGDNMWLEKFLEESQEVDILVPEATTTEKGDTLAFDVDQLWSLFDGETVKFD
modifications: left off: NubG and FRB (from the vector pFRB), end not stated, kept
- interaction with GL3 (in words) [4]: does not
- interaction with GL3 (in words) [5]: unable to interact
